Data reported in PMC11115230, “Mitotic deacetylase complex (MiDAC) recognizes the HIV-1 core promoter to control activated viral gene expression”.

How the values were obtained:
[1] = target: T1, DNTTIP1 (TdIF1), His-tagged (human, UniProt Q9H147 1-329); assay: fluorescence anisotropy; Hill n 1.78; error = fit SE x15; Anisotropy: 15 nM DNA, 10 mM Na-PO4 pH 6.5, 150 mM KCl, 250 uM TCEP, 5% glycerol. Pull-down: 20 mM HEPES pH 7.9, 100 mM KCl, 10% glycerol, 0.05% CHAPS, poly(dIdC), oligo B, acetylated BSA, room temperature; conditions: protein: recombinant; tags: N-term 6xHis; chain copies: 2; label: fluorescein on first T of sense strand; blunt
T1 sequence: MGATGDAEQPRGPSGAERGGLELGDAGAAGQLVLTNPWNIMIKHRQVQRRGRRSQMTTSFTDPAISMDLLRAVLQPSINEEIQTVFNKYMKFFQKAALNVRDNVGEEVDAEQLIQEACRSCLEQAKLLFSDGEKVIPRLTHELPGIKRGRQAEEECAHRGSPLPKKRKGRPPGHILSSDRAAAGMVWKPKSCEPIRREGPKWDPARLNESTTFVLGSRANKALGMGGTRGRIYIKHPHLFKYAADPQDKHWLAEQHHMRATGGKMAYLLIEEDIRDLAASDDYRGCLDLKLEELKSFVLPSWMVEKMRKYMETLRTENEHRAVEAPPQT

[2] = target: T1, DNTTIP1 (TdIF1), His-tagged; assay: equimolar DNA; Tm 39.2 C; unit inferred, M assumed; Anisotropy: 15 nM DNA, 10 mM Na-PO4 pH 6.5, 150 mM KCl, 250 uM TCEP, 5% glycerol. Pull-down: 20 mM HEPES pH 7.9, 100 mM KCl, 10% glycerol, 0.05% CHAPS, poly(dIdC), oligo B, acetylated BSA, room temperature; conditions: protein: recombinant; tags: N-term 6xHis; chain copies: 2; label: fluorescein on first T of sense strand (anisotropy only); blunt
[3] = target: T1, DNTTIP1 (TdIF1), His-tagged; assay: fluorescence anisotropy; Hill n 1.63; error = fit SE x15; Anisotropy: 15 nM DNA, 10 mM Na-PO4 pH 6.5, 150 mM KCl, 250 uM TCEP, 5% glycerol. Pull-down: 20 mM HEPES pH 7.9, 100 mM KCl, 10% glycerol, 0.05% CHAPS, poly(dIdC), oligo B, acetylated BSA, room temperature; conditions: protein: recombinant; tags: N-term 6xHis; chain copies: 2; label: fluorescein on first T of sense strand (anisotropy only); blunt
[4] = target: T1, DNTTIP1 (TdIF1), His-tagged; assay: CD thermal denaturation; equimolar DNA; unit inferred, M assumed; Anisotropy: 15 nM DNA, 10 mM Na-PO4 pH 6.5, 150 mM KCl, 250 uM TCEP, 5% glycerol. Pull-down: 20 mM HEPES pH 7.9, 100 mM KCl, 10% glycerol, 0.05% CHAPS, poly(dIdC), oligo B, acetylated BSA, room temperature; conditions: protein: recombinant; tags: N-term 6xHis; chain copies: 2; blunt
[5] = target: T1, DNTTIP1 (TdIF1), His-tagged; assay: fluorescence anisotropy; Hill n 1.89; error = fit SE x15; Anisotropy: 15 nM DNA, 10 mM Na-PO4 pH 6.5, 150 mM KCl, 250 uM TCEP, 5% glycerol. Pull-down: 20 mM HEPES pH 7.9, 100 mM KCl, 10% glycerol, 0.05% CHAPS, poly(dIdC), oligo B, acetylated BSA, room temperature; conditions: protein: recombinant; tags: N-term 6xHis; chain copies: 2; label: fluorescein on first T of sense strand (anisotropy only); blunt
[6] = target: T1, DNTTIP1 (TdIF1), His-tagged; assay: equimolar DNA; Tm 32.7 to 43.5 C; unit inferred, M assumed; Anisotropy: 15 nM DNA, 10 mM Na-PO4 pH 6.5, 150 mM KCl, 250 uM TCEP, 5% glycerol. Pull-down: 20 mM HEPES pH 7.9, 100 mM KCl, 10% glycerol, 0.05% CHAPS, poly(dIdC), oligo B, acetylated BSA, room temperature; conditions: protein: recombinant; tags: N-term 6xHis; chain copies: 2; label: fluorescein on first T of sense strand (anisotropy only); blunt
[7] = target: T1, DNTTIP1 (TdIF1), His-tagged; assay: fluorescence anisotropy; Hill n 2.39; error = fit SE x15; Anisotropy: 15 nM DNA, 10 mM Na-PO4 pH 6.5, 150 mM KCl, 250 uM TCEP, 5% glycerol. Pull-down: 20 mM HEPES pH 7.9, 100 mM KCl, 10% glycerol, 0.05% CHAPS, poly(dIdC), oligo B, acetylated BSA, room temperature; conditions: protein: recombinant; tags: N-term 6xHis; chain copies: 2; label: fluorescein on first T of sense strand; blunt

B1: Scr_25 (dsDNA)
DNA 1: AGATCAGCAGAGCTCTGGTAGCTAT
DNA 2: ATAGCTACCAGAGCTCTGCTGATCT
Work on B1 yielded a Kd [1] of 156 ± 15.6 nM.

B2: ATCC_25 (dsDNA)
DNA 1: AGATGATCCATATAAGGATATCCTT
DNA 2: AAGGATATCCTTATATGGATCATCT
B2 gave a Kd [2] of ~791 nM and a Kd [3] of 137 ± 16.6 nM.

B3: DNTTIP_cons (dsDNA)
DNA 1: CGCCAAATAAAAGTTGCATGGTCG
DNA 2: CGACCATGCAACTTTTATTTGGCG
Binder B3 has a Kd [4] of ~7.38 nM.

B4: TASHET_25 wt (dsDNA)
DNA 1: AGATGCTGCATATAAGCAGCTGCTT
DNA 2: AAGCAGCTGCTTATATGCAGCATCT
B4 showed a Kd [5] of 51.1 ± 4.2 nM and a Kd [6] of ~0.392 nM.

B5: CATAKO_25 (dsDNA)
DNA 1: AGATGCTGAGAGCTCGCAGCTGCTT
DNA 2: AAGCAGCTGCGAGCTCTCAGCATCT
B5 was tested, and the Kd [7] was 117 ± 15.6 nM.
